Reference: the DeepSol protein solubility set

Assay: soluble on expression in E. coli; label from the status in PepcDB or PDB records

| Sequence | soluble on expression in E. coli |
| --- | --- |
| MRKIIKGREPDAWLKYRCTPGAVYQRKPALADSLLLEQGYVCAYCEKRIDVQDLRVEHIKPRSQYPAQQLSYSNMVACCSGQSQGSAHCDCSKKDEEITLNLFTDALFLSISYKHDGTISSANKSWNDDINITLNLNCLSLKENRKLALEGLLEIIKKEDYSQGVLKRLKARYEAKDKGHKFAEYRGIILYYIDKKLSP | not soluble |
| MNGASRGDVQRPTPVQAPAKRPIPPTVFRFEKASKIGTSLDTTPKELPIRRPVPLPGPRFVKDVNPSPPATSSPNVQTQCHQPPVVRSQTHQASVSQTTPTQTTPSQYTPASVSTARAPQFHRSSHVTPSQQQRIEQAFGPAPVSQSQPQNGSYIQYNEPSTSVASTTTSFYSPNESEPVFTHAISFKPNEPENGQKAREQLELLDSGKINEINQSKVPTTIELPPNCKLFQYSWVLDGIPRTLLVPMPMDATEEDVKAMLPKTLEMDSNLFNNARPRDELPVLSFPNGTVPNVEMIGPKVQQPMLVNPKQFNRIMRRREMRQQLEASGRLPLARQKYLHESRHLHALKRKRGLDGRFDNTKTAESSSMVSSTTSPRKLKRRNRLPGEETSDSSSIVLPSPVEIQPKGGIVNSSMPSTSTGYINNGMDHQTDYIEHQQPMSTYDQYHDHVQYIAPDGNVNYHNNHDNGVDLTGSDGQSFTNL | soluble |
| AHHHHHHGSKEEEIHVDPQIVKNITEILKNIKKMKVKQDKRVKWRRENDGRIITFNPITGKICVMNPTLAEIYVMTKNPKGCTFETLIRTLKQRFPSIDEKQLESDILRAMTWLFINGFVYLEDTSKKSKKINIVDVIMEISNQKRGPRQ | not soluble |
| MSLYISYSPLRITFGGGGTDVEPFLSKHGGAVVNATIDRGVSVRYIEDEFQLELSSRDFVRSYIVNMHRAASVTKMMADFLSEAGITNGRVIMSGDAPPGSGLGSSSSAVSALMNLVNSIRGRTVDPATLAEESYNLERNHFHVVLGKQDPYAIAYGGFKYMEFGADGVKREDLGQYSEFTTELQRRILLVYTGKTRQSSEVLMEQVKASEMGDEKTDRNLLQMKDVARRLRDAVVKNDMDEFAHQINRGWEIKKSLSSRITNDHIDRIIALALSNGAQAARLMGGGSQGFVLVMCKPENLNYIQRRMMSISNFVVRTSFDMKGTRMIGHEGHHHHHH | not soluble |
| MAHHHHHHMSSSSSGQYSGSGGNRGSGFVHLNTPASIQYTAGKTLSLSALRQSKSRVECAVLPESMSVWRDAFQRYSKEEGYSSFAADIEDERTGNGPILPPLVPQRAGPVRRRAGRALVRTDAFFCASSSPAPLGTSASTAHTGADRPPLTDGAAAISSTATAASASSSSRLSDKGTTATSADSVADGSTGPTAKQQQEGIPIVSHHKLLGRQQFVYPDYDGVLSAGVVPQIVVTAEEEAEEAAAKAFYISPLTMTEEELAAFEELQGLWKSRARSHSFLGAQHRKAAKGAVDPSSSADVLEAGGAGLPKVRRCEGVTGGASLSARRGNEIDVPAYAEAETAVEEESKLDKELSEALRMADDLLRFA | not soluble |
| MKKGVLFDLDGTILDFEKSEDQALKRTFLKYGIPLTEDQVFLYREINRKWWKLLAEGKVSKDVVVVARFEEFLKTLNIPLDPRKVAKDYLEFLSEEAHFLPGAEEFLERLKKKDLRMAVVTNGVRFVQEKRSRKLKLDRFFEFVLTSEEAGVEKPDPRIFWLALERMKLKKEEVLYVGDDFSSDLEGARNAGIDFVLFSSDGDSSGDFPVARNFKELEKIVEEFL | soluble |
| MGSDKIHHHHHHMLSHEDNETLVRVGPGTPTGQFMRLYWLPFLPSSDLTVDGQPQRVRLLGEDLIAFRDSEGRVGLVDHVCPHRGAPLVFGRNENCGLRCVYHGWQFGVDGQVIDTPAEPAESRLKDKVRIRSYPCRERNGIVWAYMGEADANALPPLPNLEWNMVPLENVHFSFRVQECNWLQAVEGEIDSAHAPILHGRIDSQGAINEWTAKRDLRPVFECQRREFGISIASRRVLDDSHHYWRVNQFLFPFYTLVPPQSKYPELSGHAWVPVDDENTLCLMFSYTPAAPLYEKTRKLFEDGHAGRETGHASAHAFAPRPVTQPYAKYWTRFNLESAFQFDYDAQTKTWFSGLPGLWVQDAACQSGVAPIYDRRKENLGISDTGVAMTRRLLLENVRKLASERVSPVRVDDPDLWMVRAVSLTLPAGAPWQSDGAEHMRARLGADFGYTP | not soluble |
| MSFVVIIPARFSSTRLPGKPLVDINGKPMIVHVLERARESGAERIIVATDHEDVARAVEAAGGEVCMTRADHQSGTERLAEVVEKCGFSDDTVIVNVQGDEPMIPAVIIRQVAENLAQRQVGMATLAVPIHSAEEAFNPNAVKVVLDAEGYALYFSRATIPWDRDRFAKSLETVGDTCLRHLGIYGYRAGFIRRYVSWQPSPLEHIEMLEQLRVLWYGEKIHVAVAKAVPGTGVDTADDLERVRAEMR | not soluble |
| GPLGSNIEQYIHDLDSNSFELDLQFSEDEKRLLLEKQAGGNPWHQFVENNLILKMGPVDKRKGLFARRRQLLLTEGPHLYYVDPVNKVLKGEIPWSQELRPEAKNFKTFFVHTPNRTYYLMDPSGNAHKWCRKIQEVWRQRYQSHPDAAVQ | soluble |
| MATLTAKNLAKAYKGRRVVEDVSLTVNSGEIVGLLGPNGAGKTTTFYMVVGIVPRDAGNIIIDDDDISLLPLHARARRGIGYLPQEASIFRRLSVYDNLMAVLQIRDDLSAEQREDRANELMEEFHIEHLRDSMGQSLSGGERRRVEIARALAANPKFILLDEPFAGVDPISVIDIKRIIEHLRDSGLGVLITDHNVRETLAVCERAYIVSQGHLIAHGTPTEILQDEHVKRVYLGEDFRL | soluble |
| MGSDKIHHHHHHMFLTKVSLLDHPESLPGYLSSLAIVEYLHEQPLEFRAPITVITGENGVGKSTLVEALAVGMRLNPSGGSRHANFGREGDIVSSLHQSLKLVRRENPRDAFFFRGETMYNVASYYEELMGEKNMHDLHKMSHGESVFAVIDRRFNNQGFFVLDEPEAGLSMLRQLELLGKLGNLARGGAQIIMATHSPILLAIPGAEILEITSSGVAKVNFEDAEAVRAAREFVADPRGTAAFLTAEEDHQ | not soluble |
| MSLKIVSFQDTKQNTGMESAEISEELNKLSKEKSDLQKKVNELQSQVKGYQNAAASSGSMNKQIVNELNTSNMLIGSVDVTGPGIILVITPQNISSSTNNSTGQNNDVITGEDLLYLINELNFSQAEAISINDVRITSMTGIRSSSGGSDIFVGDDRISPYEKITIKAIGDSKLLYSALSYPGVLSSVPSGYKADYDKYGSIKIGKTNKVIKFDYAKPISKEGHHHHHH | soluble |
| FVNVGERTNVTGSKMFARLVREEKYDEALAVARQQVENGAQIIDVNMDEAMLDSVACMHRFLNLIASEPDIARVPVMIDSSKWEVIETGLKCVQGKAVVNSISMKEGEEPFRHHARLCRRYGAAMVVMAFDEQGQADSLERRKEICGRAYRILVEEEGFPPEDIIFDPNVFAVATGIDEHNHYAVDFIEGARWIRANLPHARISGGISNVSFSFRGNEPMREAIHTVFLYYAIEAGLTMGIVNAGQLGVYADLAPHLRDLVEDVILDRPE | not soluble |
| MKEDTLLRKLVADGEGVGDDRKVQQIATFFRESRKEDAKTSVPEAVKVTKAIEEMYKKMEVAKNELADAKIVKRNRQEYRKLVNVLEEVPSRAETTRKLGEVKDDLERQHERQKVLEAKLMDRRNHLQAFMIILSNFQRFCAEDDDDDAEVMSNPGEDDDAASVTEKQQEDDVRK | not soluble |
| MAEIGIFVGTMYGNSLLVAEEAEAILTAQGHKATVFEDPELSDWLPYQDKYVLVVTSTTGQGDLPDSIVPLFQGIKDSLGFQPNLRYGVIALGDSSYVNFCNGGKQFDALLQEQSAQRVGEMLLIDASENPEPETESNPWVEQWGTLLS | soluble |
| MSLNQQKKQAPVELKVGQTFPLTIKRLGINGEGVGYFKKKVVFVPGALPGEEVVVQATKVQPKFSEGRIKKIRKASEHRVAPPCPVYEQCGGCQLQHLAYSQQLREKRDIVIQSLERHTKFKVENMEIKETIGMDNPWNYRNKSQFQIGRSQSGSIIAGLYGLDSHDIVPIKDCIVQHPATNKTTGIVRRILEDFNVSVYNERKRKGDVRTIVTRVGFETGEVQVVLVTAKETLPHKEEIVKAIQKRLPEVKSIIQNVNGAKTSVIFGEKTKQLAGKTVIQEVLGDVSFELSARAFFQLNPEQTVKLYDEVKKAAQLTGKEKVVDAYCGVGTIGMWVADGAKEVRGMDVIKESIDDAKKNAKKHGMANATYVTGTAEHWLPKWTKEGFRPDVVIVDPPRTGCDSTFLDTIKKVKPKRFVYVSCNPSTLAKDLQTLSKDYRVDYIQPVDMFPQTAHVEAVARLVLKSSNEGHHHHHH | not soluble |
